# Laboratory results published in patent US20240049668A1 (VILMORIN AND CIE, published 2024).
# Biological target: T1, Movement Protein of ToBRFV (Tomato Brown Rugose Fruit Virus …, UniProt A0A0S2SZW1 1-266)
# T1 sequence: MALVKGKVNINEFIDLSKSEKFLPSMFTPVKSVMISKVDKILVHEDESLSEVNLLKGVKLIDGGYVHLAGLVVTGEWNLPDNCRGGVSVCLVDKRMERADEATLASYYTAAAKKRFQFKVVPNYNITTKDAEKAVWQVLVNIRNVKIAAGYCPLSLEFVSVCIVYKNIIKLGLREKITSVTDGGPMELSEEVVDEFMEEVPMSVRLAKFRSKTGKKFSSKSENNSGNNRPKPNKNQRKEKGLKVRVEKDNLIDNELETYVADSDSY
# Experiment: cell-based or functional assay
row,Binder,HR when expressed with MP Rugose [HR scale 0-4]
1,TM-2-2 variant pJL 468_A (848 A) (receptor) MAEILLTSVINKSVEIAGNLLIQEGKRLYWLKEDIDWLQREMRHIRSYVDNAKAKEAGGDSRVKNLLKDIQELAGDVEDLLDDFLPKIQQSNKFNYCLKRSSFADEFAMEIEKIKRRVVDIDRIRKTYNIIDTDNNNDDCVLLDRRRLFLHADETEIIGLDDDFNMLQAKLLNQDLHYGVVSIVGMPGLGKTTLAKKLYRLIRDQFECSGLVYVSQQPRASEILLDIAKQIGLTEQKMKENLEDNLRSLLKIKRYVILLDDIWDVEIWDDLKLVLPECDSKVGSRMIITSRNSNVGRYIGGESSLHALQPLESEKSFELFTKKIFNFDDNNSWANASPDLVNIGRNIVGRCGGIPLAIVVTAGMLRARERTEHAWNRVLESMGHKVQDGCAKVLALSYNDLPIASRPCFLYFGLYPEDHEIRAFDLINMWIAEKFIVVNSGNRREAEDLAEDVLNDLVSRNLIQLAKRTYNGRISSCRIHDLLHSLCVDLAKESNFFHTAHDAFGDPGNVARLRRITFYSDNVMIEFFRSNPKLEKLRVLFCFAKDPSIFSHMAYFDFKLLHTLVVVMSQSFQAYVTIPSKFGNMTCLRYLRLEGNICGKLPNSIVKLTRLETIDIDRRSLIQPPSGVWESKHLRHLCYRDYGQACNSCFSISSFYPNIYSLHPNNLQTLMWIPDKFFEPRLLHRLINLRKLGILGVSNSTVKMLSIFSPVLKALEVLKLSFSSDPSEQIKLSSYPHIAKLHLNVNRTMALNSQSFPPNLIKLTLAYFSVDRYILAVLKTFPKLRKLKMFICKYNEEKMDLSGEANGYSFPQLEVLHIHSPNGLSEVTCTDDVSMPKLKKLLLTGFHARISLSERLKKLSK,< 1
2,TM-2-2 variant pJL 468_E (848 E) (receptor) MAEILLTSVINKSVEIAGNLLIQEGKRLYWLKEDIDWLQREMRHIRSYVDNAKAKEAGGDSRVKNLLKDIQELAGDVEDLLDDFLPKIQQSNKFNYCLKRSSFADEFAMEIEKIKRRVVDIDRIRKTYNIIDTDNNNDDCVLLDRRRLFLHADETEIIGLDDDFNMLQAKLLNQDLHYGVVSIVGMPGLGKTTLAKKLYRLIRDQFECSGLVYVSQQPRASEILLDIAKQIGLTEQKMKENLEDNLRSLLKIKRYVILLDDIWDVEIWDDLKLVLPECDSKVGSRMIITSRNSNVGRYIGGESSLHALQPLESEKSFELFTKKIFNFDDNNSWANASPDLVNIGRNIVGRCGGIPLAIVVTAGMLRARERTEHAWNRVLESMGHKVQDGCAKVLALSYNDLPIASRPCFLYFGLYPEDHEIRAFDLINMWIAEKFIVVNSGNRREAEDLAEDVLNDLVSRNLIQLAKRTYNGRISSCRIHDLLHSLCVDLAKESNFFHTAHDAFGDPGNVARLRRITFYSDNVMIEFFRSNPKLEKLRVLFCFAKDPSIFSHMAYFDFKLLHTLVVVMSQSFQAYVTIPSKFGNMTCLRYLRLEGNICGKLPNSIVKLTRLETIDIDRRSLIQPPSGVWESKHLRHLCYRDYGQACNSCFSISSFYPNIYSLHPNNLQTLMWIPDKFFEPRLLHRLINLRKLGILGVSNSTVKMLSIFSPVLKALEVLKLSFSSDPSEQIKLSSYPHIAKLHLNVNRTMALNSQSFPPNLIKLTLAYFSVDRYILAVLKTFPKLRKLKMFICKYNEEKMDLSGEANGYSFPQLEVLHIHSPNGLSEVTCTDDVSMPKLKKLLLTGFHERISLSERLKKLSK,< 1
3,TM-2-2 variant pJL 468_K (848 K) (receptor) MAEILLTSVINKSVEIAGNLLIQEGKRLYWLKEDIDWLQREMRHIRSYVDNAKAKEAGGDSRVKNLLKDIQELAGDVEDLLDDFLPKIQQSNKFNYCLKRSSFADEFAMEIEKIKRRVVDIDRIRKTYNIIDTDNNNDDCVLLDRRRLFLHADETEIIGLDDDFNMLQAKLLNQDLHYGVVSIVGMPGLGKTTLAKKLYRLIRDQFECSGLVYVSQQPRASEILLDIAKQIGLTEQKMKENLEDNLRSLLKIKRYVILLDDIWDVEIWDDLKLVLPECDSKVGSRMIITSRNSNVGRYIGGESSLHALQPLESEKSFELFTKKIFNFDDNNSWANASPDLVNIGRNIVGRCGGIPLAIVVTAGMLRARERTEHAWNRVLESMGHKVQDGCAKVLALSYNDLPIASRPCFLYFGLYPEDHEIRAFDLINMWIAEKFIVVNSGNRREAEDLAEDVLNDLVSRNLIQLAKRTYNGRISSCRIHDLLHSLCVDLAKESNFFHTAHDAFGDPGNVARLRRITFYSDNVMIEFFRSNPKLEKLRVLFCFAKDPSIFSHMAYFDFKLLHTLVVVMSQSFQAYVTIPSKFGNMTCLRYLRLEGNICGKLPNSIVKLTRLETIDIDRRSLIQPPSGVWESKHLRHLCYRDYGQACNSCFSISSFYPNIYSLHPNNLQTLMWIPDKFFEPRLLHRLINLRKLGILGVSNSTVKMLSIFSPVLKALEVLKLSFSSDPSEQIKLSSYPHIAKLHLNVNRTMALNSQSFPPNLIKLTLAYFSVDRYILAVLKTFPKLRKLKMFICKYNEEKMDLSGEANGYSFPQLEVLHIHSPNGLSEVTCTDDVSMPKLKKLLLTGFHKRISLSERLKKLSK,~1
4,TM-2-2 variant pJL 468_D (848 D) (receptor) MAEILLTSVINKSVEIAGNLLIQEGKRLYWLKEDIDWLQREMRHIRSYVDNAKAKEAGGDSRVKNLLKDIQELAGDVEDLLDDFLPKIQQSNKFNYCLKRSSFADEFAMEIEKIKRRVVDIDRIRKTYNIIDTDNNNDDCVLLDRRRLFLHADETEIIGLDDDFNMLQAKLLNQDLHYGVVSIVGMPGLGKTTLAKKLYRLIRDQFECSGLVYVSQQPRASEILLDIAKQIGLTEQKMKENLEDNLRSLLKIKRYVILLDDIWDVEIWDDLKLVLPECDSKVGSRMIITSRNSNVGRYIGGESSLHALQPLESEKSFELFTKKIFNFDDNNSWANASPDLVNIGRNIVGRCGGIPLAIVVTAGMLRARERTEHAWNRVLESMGHKVQDGCAKVLALSYNDLPIASRPCFLYFGLYPEDHEIRAFDLINMWIAEKFIVVNSGNRREAEDLAEDVLNDLVSRNLIQLAKRTYNGRISSCRIHDLLHSLCVDLAKESNFFHTAHDAFGDPGNVARLRRITFYSDNVMIEFFRSNPKLEKLRVLFCFAKDPSIFSHMAYFDFKLLHTLVVVMSQSFQAYVTIPSKFGNMTCLRYLRLEGNICGKLPNSIVKLTRLETIDIDRRSLIQPPSGVWESKHLRHLCYRDYGQACNSCFSISSFYPNIYSLHPNNLQTLMWIPDKFFEPRLLHRLINLRKLGILGVSNSTVKMLSIFSPVLKALEVLKLSFSSDPSEQIKLSSYPHIAKLHLNVNRTMALNSQSFPPNLIKLTLAYFSVDRYILAVLKTFPKLRKLKMFICKYNEEKMDLSGEANGYSFPQLEVLHIHSPNGLSEVTCTDDVSMPKLKKLLLTGFHDRISLSERLKKLSK,< 1
5,TM-2-2 variant pJL 468_H (848 H) (receptor) MAEILLTSVINKSVEIAGNLLIQEGKRLYWLKEDIDWLQREMRHIRSYVDNAKAKEAGGDSRVKNLLKDIQELAGDVEDLLDDFLPKIQQSNKFNYCLKRSSFADEFAMEIEKIKRRVVDIDRIRKTYNIIDTDNNNDDCVLLDRRRLFLHADETEIIGLDDDFNMLQAKLLNQDLHYGVVSIVGMPGLGKTTLAKKLYRLIRDQFECSGLVYVSQQPRASEILLDIAKQIGLTEQKMKENLEDNLRSLLKIKRYVILLDDIWDVEIWDDLKLVLPECDSKVGSRMIITSRNSNVGRYIGGESSLHALQPLESEKSFELFTKKIFNFDDNNSWANASPDLVNIGRNIVGRCGGIPLAIVVTAGMLRARERTEHAWNRVLESMGHKVQDGCAKVLALSYNDLPIASRPCFLYFGLYPEDHEIRAFDLINMWIAEKFIVVNSGNRREAEDLAEDVLNDLVSRNLIQLAKRTYNGRISSCRIHDLLHSLCVDLAKESNFFHTAHDAFGDPGNVARLRRITFYSDNVMIEFFRSNPKLEKLRVLFCFAKDPSIFSHMAYFDFKLLHTLVVVMSQSFQAYVTIPSKFGNMTCLRYLRLEGNICGKLPNSIVKLTRLETIDIDRRSLIQPPSGVWESKHLRHLCYRDYGQACNSCFSISSFYPNIYSLHPNNLQTLMWIPDKFFEPRLLHRLINLRKLGILGVSNSTVKMLSIFSPVLKALEVLKLSFSSDPSEQIKLSSYPHIAKLHLNVNRTMALNSQSFPPNLIKLTLAYFSVDRYILAVLKTFPKLRKLKMFICKYNEEKMDLSGEANGYSFPQLEVLHIHSPNGLSEVTCTDDVSMPKLKKLLLTGFHHRISLSERLKKLSK,< 1
